Measured values reported in patent publication US20230192896A1 (published 2023).
Where a chain is given by its changes, count along the chain named.

T1: FX zymogen (UniProt P00742 41-179; P00742 183-488)
T1 chain 1: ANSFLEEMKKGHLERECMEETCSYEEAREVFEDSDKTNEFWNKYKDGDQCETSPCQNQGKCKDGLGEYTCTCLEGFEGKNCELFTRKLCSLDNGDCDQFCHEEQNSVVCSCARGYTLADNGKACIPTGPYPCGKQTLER
T1 chain 2: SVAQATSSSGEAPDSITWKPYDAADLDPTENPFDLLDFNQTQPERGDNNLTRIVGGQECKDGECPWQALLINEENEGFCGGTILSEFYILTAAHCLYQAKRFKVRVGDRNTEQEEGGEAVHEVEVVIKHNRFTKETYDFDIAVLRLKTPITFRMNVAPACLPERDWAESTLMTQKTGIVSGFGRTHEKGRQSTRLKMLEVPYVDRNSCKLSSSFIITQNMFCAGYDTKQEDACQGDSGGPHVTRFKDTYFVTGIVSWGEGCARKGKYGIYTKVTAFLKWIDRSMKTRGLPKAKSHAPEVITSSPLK

B1: BIIB-12-1326 (antibody, V domains shown)
VH: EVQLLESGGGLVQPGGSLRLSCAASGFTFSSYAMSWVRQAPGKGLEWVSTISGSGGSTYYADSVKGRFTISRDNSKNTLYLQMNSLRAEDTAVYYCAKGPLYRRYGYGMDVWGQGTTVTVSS
VL: EIVLTQSPGTLSLSPGERATLSCRASQSVRSSYLAWYQQKPGQAPRLLIYGASSRATGIPDRFSGSGSGTDFTLTISRLEPEDFAVYYCQQAYSSPLTFGGGTKVEIK
B2: BIIB-12-897 (antibody, V domains shown)
VH: QLQLQESGPGLVKPSETLSLTCTVSGGSISSSSYYWGWIRQPPGKGLEWIGSIYYSGSTYYNPSLKSRVTISVDTSKNQFSLKLSSVTAADTAVYYCAREGRTYYGGWFDPWGQGTLVTVSS
VL: B1 VL with R30S, A92D, Y93G, S94N, S95Y, L97Y
B3: BIIB-12-1329 (antibody, V domains shown)
VH: QVQLVESGGGVVQPGRSLRLSCAASGFTFSSYGMHWVRQAPGKGLEWVAVISYDGSNKYYADSVKGRFTISRDNSKNTLYLQMNSLRAEDTAVYYCARGGAGSRYFQHWGQGTLVTVSS
VL: EIVMTQSPATKSVSPGERATLSCRASQSVSSNLAWYQQKPGQAPRLLIYSASTRATGIPARFSGSGSGTEFTLTISSLQSEDFAVYYCQQVFNWPPTFGGGTKVKIK
B4: BIIB-12-924 (antibody, V domains shown)
VH: B3 VH with R98K, G100K, A101S, G102S, S103E, Y105G, F106L, Q107N, H108P
VL: DIQMTQSPSSVSASVGDRVTITCRASQGISSWLAWYQQKPGKAPKLLIYAASSLQSGVPSRFSGSGSGTDFTLTISSLQPEDFATYYCQQGNSFPLTFGGGTKVEIK
B5: BIIB-12-1302 (antibody, V domains shown)
VH: QVQLVQSGAEVKKPGASVKVSCKASGYTFTNYGISWVRQAPGQGLEWMGWISAYNGNTNYAQKLQGRVTMTTDTSTSTAYMELRSLRSDDTAVYYCARARSDWRAFDIWGQGTMVTVSS
VL: B3 VL with K11L, S50G, F92N, W94L, P96L, K105E
B6: BIIB-12-1327 (antibody, V domains shown)
VH: QVQLVESGGGVVQPGRSLRLSCAASGFTFSSYGMHWVRQAPGKGLEWVAVISYDGSNKYYADSVKGRFTISRDNSKNTLYLQMNSLRAEDTAVYYCAKLGLARGGGYGMDVWGQGTTVTVSS
VL: B3 VL with K11Q, S12Y, S50G, V91Y, F92H, W94F, K105E
B7: BIIB-12-931 (antibody, V domains shown)
VH: QVQLVQSGAEVKKPGASVKVSCKASGYTFTSYYMSWVRQAPGQGLEWMGIINPSGGSTSYAQKFQGRVTMTRDTSTSTVYMELSSLRSEDTAVYYCARDPVQEYGPYYYYMDVWGKGTTVTVSS
VL: B3 VL with K11L, S50G, V91A, F92A, N93Y, P96W, K105E
B8: BIIB-12-915 (antibody, V domains shown)
VH: QLQLQESGPGLVKPSETLSLTCTVSGGSISSSRYYWGWIRQPPGKGLEWIGSIYYSGSTYYNPSLKSRVTISVDTSKNQFSLKLSSVTAADTAVYYCARVGGGYANPWGQGTLVTVSS
VL: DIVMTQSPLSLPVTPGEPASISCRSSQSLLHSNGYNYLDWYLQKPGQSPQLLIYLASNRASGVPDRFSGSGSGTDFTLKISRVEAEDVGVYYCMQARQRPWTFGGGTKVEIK
B9: BIIB-12-1322 (antibody, V domains shown)
VH: QVQLVQSGAEVKKPGASVKVSCKASGYTFTSYYIHWVRQAPGQGLEWMGIINPSGGSTSYAQKFQGRVTMTRDTSTSTVYMELSSLRSEDTAVYYCARSRQRHRGDWYFDLWGRGTLVTVSS
VL: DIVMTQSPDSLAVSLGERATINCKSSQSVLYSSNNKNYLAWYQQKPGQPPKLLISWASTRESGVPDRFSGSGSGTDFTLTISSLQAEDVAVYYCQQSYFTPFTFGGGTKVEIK
B10: BIIB-12-1321 (antibody, V domains shown)
VH: QVQLVQSGAEVKKPGSSVKVSCKASGGTFSSYAISWVRQAPGQGLEWMGGIIPIFGTANYAQKFQGRVTITADESTSTAYMELSSLRSEDTAVYYCARTPDTSSATDWGQGTLVTVSS
VL: EIVMTQSPATLSLSPGERATLSCRASQSVSSYLAWYQQKPGQAPRLLIYDSSNRATGIPARFSGSGSGTDFTLTISSLEPEDFAVYYCQQFTNLPYTFGGGTKVEIK
B11: BIIB-12-919 (antibody, V domains shown)
VH: QVQLVQSGAEVKKPGASVKVSCKASGYTFTSYYMHWVRQAPGQGLEWMGVINPSGGSTSYAQKFQGRVTMTRDTSTSTVYMELSSLRSEDTAVYYCARGANIAVGRRYADYWGQGTLVTVSS
VL: DIQMTQSPSTLSASVGDRVTITCRASQSISSWLAWYQQKPGKAPKLLIYKASSLESGVPSRFSGSGSGTEFTLTISSLQPDDFATYYCQQVSSYPTFGGGTKVEIK
B12: BIIB-12-1303 (antibody, V domains shown)
VH: QVQLVESGGGVVQPGRSLRLSCAASGFTFSSYGMHWVRQAPGKGLEWVAVISYDGSNKYYADSVKGRFTISRDNSKNTLYLQMNSLRAEDTAVYYCARGPTSRLFQHWGQGTLVTVS
VL: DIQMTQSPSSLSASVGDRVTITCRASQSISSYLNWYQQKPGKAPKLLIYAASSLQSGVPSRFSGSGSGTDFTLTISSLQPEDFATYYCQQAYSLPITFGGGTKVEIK
B13: BIIB-12-932 (antibody, V domains shown)
VH: QVQLVESGGGVVQPGRSLRLSCAASGFTFSSYGMHWVRQAPGKGLEWVAVISYDGSNKYYADSVKGRFTISRDNSKNTLYLQMNSLRAEDTAVYYCARLGYRGASAFDIWGQGTMVTVSS
VL: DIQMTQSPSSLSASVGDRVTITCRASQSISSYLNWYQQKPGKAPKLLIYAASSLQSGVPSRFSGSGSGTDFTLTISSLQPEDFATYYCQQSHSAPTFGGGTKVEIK
B14: BIIB-12-907 (antibody, V domains shown)
VH: QVQLQESGPGLVKPSETLSLTCAVSGYSISSGYYWAWIRQPPGKGLEWIGSIYHSGSTYYNPSLKSRVTISVDTSKNQFSLKLSSVTAADTAVYYCARESGMSGAAYWGQGTLVTVSS
VL: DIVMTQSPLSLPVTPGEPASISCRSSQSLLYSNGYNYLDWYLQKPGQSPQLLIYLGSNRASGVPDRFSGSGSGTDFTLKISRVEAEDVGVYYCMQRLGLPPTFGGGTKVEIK
B15: BIIB-12-937 (antibody, V domains shown)
VH: QVQLVQSGAEVKKPGASVKVSCKASGYTFTSYYMHWVRQAPGQGLEWMGIINPSGGSTSYAQKFQGRVTMTRDTSTSTVYMELSSLRSEDTAVYYCARPTRMLRSYGMDVWGQGTTVTVSS
VL: not shown
B16: BIIB-12-923 (antibody, V domains shown)
VH: QVQLVQSGAEVKKPGASVKVSCKASGYTFTSYYMHWVRQAPGQGLEWMGIINPSGGSTSYAQKFQGRVTMTRDTSTSTVYMELSSLRSEDTAVYYCARGAGYLQRAFDIWGQGTMVTVSS
VL: DIQMTQSPSTLSASVGDRVTITCRASQSISSWLAWYQQKPGKAPKLLIYKASSLESGVPSRFSGSGSGTEFTLTISSLQPDDFATYYCQQFKSLSFTFGGGTKVEIK
B17: BIIB-12-933 (antibody, V domains shown)
VH: QVQLVESGGGVVQPGRSLRLSCAASGFTFSSYGMHWVRQAPGKGLEWVAVISYDGSNKYYADSVKGRFTISRDNSKNTLYLQMNSLRAEDTAVYYCARLPRFTGTAYWGQGTLVTVSS
VL: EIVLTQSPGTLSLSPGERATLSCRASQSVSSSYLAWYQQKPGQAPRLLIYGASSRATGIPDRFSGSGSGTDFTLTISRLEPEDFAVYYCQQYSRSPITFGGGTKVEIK
B18: BIIB-12-906 (antibody, V domains shown)
VH: QVQLVESGGGVVQPGRSLRLSCAASGFTFSSYGMHWVRQAPGKGLEWVAVISYDGSNKYYADSVKGRFTISRDNSKNTLYLQMNSLRAEDTAVYYCAKSSRHFDYWGRGTLVTVSS
VL: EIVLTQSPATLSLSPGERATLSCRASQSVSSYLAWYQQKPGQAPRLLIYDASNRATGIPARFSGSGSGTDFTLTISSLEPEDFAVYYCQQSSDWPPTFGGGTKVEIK
B19: BIIB-12-894 (antibody, V domains shown)
VH: B2 VH with R102A, T103H, Y104S, Y105S, G106M, G107A, W108G, F109L, P111V, L117M
VL: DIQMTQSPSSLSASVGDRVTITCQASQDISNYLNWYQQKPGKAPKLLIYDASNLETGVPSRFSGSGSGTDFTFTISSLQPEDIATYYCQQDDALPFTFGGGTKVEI
B20: BIIB-12-1316 (antibody, V domains shown)
VH: QVQLVESGGGVVQPGRSLRLSCAASGFTFSSYGMHWVRQAPGKGLEWVAVISYDGSNKYYADSVKGRFTISRDNSKNTLYLQMNSLRAEDTAVYYCAKSGQYRAFDIWGQGTMVTVSS
VL: B4 VL with G91I, S93N, L96P
B21: BIIB-12-908 (antibody, V domains shown)
VH: B18 VH with S99G, S100P, H102G, F103M, Y105V, R108Q, L111T
VL: B4 VL with M4L, A50G, N92S, F94L, L96I
B22: BIIB-12-1320 (antibody, V domains shown)
VH: QLQLQESGPGLVKPSETLSLTCTVSGGSISSSSYYWGWIRQPPGKGLEWIGSIYYSGSTYYNPSLKSRVTISVDTSKNQFSLKLSSVTAADTAVYYCARGSGLLVREHYYYYMDVWGKGTTVTVS
VL: B4 VL with V11L, G28S, W32Y, A34N, G91A, N92D, S93D, F94T, L96W
B23: BIIB-12-1300 (antibody, V domains shown)
VH: B18 VH with K98R, S99G, R101K, H102Y, F103L, D104H, Y105A, R108Q
VL: B4 VL with G91A, N92S, L96P
B24: BIIB-12-1314 (antibody, V domains shown)
VH: B18 VH with S99G, S100T, H102W, F103A, D104G, Y105N, R108Q
VL: B4 VL with G91A, S93F, L96I
B25: BIIB-12-1332 (antibody, V domains shown)
VH: QVQLVQSGAEVKKPGASVKVSCKASGYTFTSYYMSWVRQAPGQGLEWMGIINPSGGSTSYAQKFQGRVTMTRDTSTSTVYMELSSLRSEDTAVYYCARLGRKSRVFDIWGQGTMVTVSS
VL: B4 VL with G91V, I106F

Target: T1, FX zymogen
Assay: BLI

Row | Kd [nM] | Binder
1 | 24.1 | B1
2 | 68 | B2
3 | 48.5 | B3
4 | 22.3 | B4
5 | 64.1 | B5
6 | 38.3 | B6
7 | 13.5 | B7
8 | 34.4 | B8
9 | 36.1 | B9
10 | 10.6 | B10
11 | 23.1 | B11
12 | 25.9 | B12
13 | 29.3 | B13
14 | 52 | B14
15 | 23.7 | B15
16 | 33.8 | B16
17 | 50.3 | B17
18 | 39.6 | B18
19 | 38 | B19
20 | 45 | B20
21 | 34 | B21
22 | 8.27 | B22
23 | 48.6 | B23
24 | 10.4 | B24
25 | 53.5 | B25
